According to IntAct's records for PubMed 35512704:

B1: Speckle-type POZ protein (Homo sapiens), O43791 (parent)
chain: MSRVPSPPPPAEMSSGPVAESWCYTQIKVVKFSYMWTINNFSFCREEMGEVIKSSTFSSGANDKLKWCLRVNPKGLDEESKDYLSLYLLLVSCPKSEVRAKFKFSILNAKGEETKAMESQRAYRFVQGKDWGFKKFIRRDFLLDEANGLLPDDKLTLFCEVSVVQDSVNISGQNTMNMVKVPECRLADELGGLWENSRFTDCCLCVAGQEFQAHKAILAARSPVFSAMFEHEMEESKKNRVEINDVEPEVFKEMMCFIYTGKAPNLDKMADDLLAAADKYALERLKVMCEDALCSNLSVENAAEILILADLHSADQLKTQAVDFINYHASDVLETSGWKSMVVSHPHLVAEAYRSLASAQCPFLGPPRKRLKQS
partner: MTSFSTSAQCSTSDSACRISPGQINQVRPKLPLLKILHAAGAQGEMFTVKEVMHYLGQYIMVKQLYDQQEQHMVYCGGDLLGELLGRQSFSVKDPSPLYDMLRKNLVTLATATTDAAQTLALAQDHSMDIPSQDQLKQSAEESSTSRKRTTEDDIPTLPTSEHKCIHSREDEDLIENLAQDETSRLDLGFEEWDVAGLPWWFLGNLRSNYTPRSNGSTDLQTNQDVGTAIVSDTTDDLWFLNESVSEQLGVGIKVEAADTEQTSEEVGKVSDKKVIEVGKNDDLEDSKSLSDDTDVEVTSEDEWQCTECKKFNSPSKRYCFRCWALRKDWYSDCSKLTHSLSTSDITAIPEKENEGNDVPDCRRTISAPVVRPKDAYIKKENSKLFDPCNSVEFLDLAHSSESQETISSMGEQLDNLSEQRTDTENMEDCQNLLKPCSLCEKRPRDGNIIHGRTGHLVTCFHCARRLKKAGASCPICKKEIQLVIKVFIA
B2: Speckle-type POZ protein (Homo sapiens), O43791 (parent)
chain: B1 chain
partner: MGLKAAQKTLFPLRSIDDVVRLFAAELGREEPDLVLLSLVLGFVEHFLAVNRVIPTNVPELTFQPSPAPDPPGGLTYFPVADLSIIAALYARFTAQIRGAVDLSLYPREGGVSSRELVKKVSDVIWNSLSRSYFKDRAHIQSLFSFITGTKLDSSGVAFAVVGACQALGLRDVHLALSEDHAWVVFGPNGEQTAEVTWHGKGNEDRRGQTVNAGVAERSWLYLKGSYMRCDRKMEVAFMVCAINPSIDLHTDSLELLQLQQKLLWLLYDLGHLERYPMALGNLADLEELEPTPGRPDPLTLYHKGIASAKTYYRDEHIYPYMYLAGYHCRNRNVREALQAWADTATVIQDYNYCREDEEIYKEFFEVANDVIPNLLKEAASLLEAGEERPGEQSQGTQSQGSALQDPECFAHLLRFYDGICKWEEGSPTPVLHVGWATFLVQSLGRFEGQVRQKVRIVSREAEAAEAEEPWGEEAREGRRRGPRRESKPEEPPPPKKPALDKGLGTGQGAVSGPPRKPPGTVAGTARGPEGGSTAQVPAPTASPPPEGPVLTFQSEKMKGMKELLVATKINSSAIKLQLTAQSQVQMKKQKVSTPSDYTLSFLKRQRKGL
B3: Speckle-type POZ protein (Homo sapiens), O43791 (parent)
chain: B1 chain
partner: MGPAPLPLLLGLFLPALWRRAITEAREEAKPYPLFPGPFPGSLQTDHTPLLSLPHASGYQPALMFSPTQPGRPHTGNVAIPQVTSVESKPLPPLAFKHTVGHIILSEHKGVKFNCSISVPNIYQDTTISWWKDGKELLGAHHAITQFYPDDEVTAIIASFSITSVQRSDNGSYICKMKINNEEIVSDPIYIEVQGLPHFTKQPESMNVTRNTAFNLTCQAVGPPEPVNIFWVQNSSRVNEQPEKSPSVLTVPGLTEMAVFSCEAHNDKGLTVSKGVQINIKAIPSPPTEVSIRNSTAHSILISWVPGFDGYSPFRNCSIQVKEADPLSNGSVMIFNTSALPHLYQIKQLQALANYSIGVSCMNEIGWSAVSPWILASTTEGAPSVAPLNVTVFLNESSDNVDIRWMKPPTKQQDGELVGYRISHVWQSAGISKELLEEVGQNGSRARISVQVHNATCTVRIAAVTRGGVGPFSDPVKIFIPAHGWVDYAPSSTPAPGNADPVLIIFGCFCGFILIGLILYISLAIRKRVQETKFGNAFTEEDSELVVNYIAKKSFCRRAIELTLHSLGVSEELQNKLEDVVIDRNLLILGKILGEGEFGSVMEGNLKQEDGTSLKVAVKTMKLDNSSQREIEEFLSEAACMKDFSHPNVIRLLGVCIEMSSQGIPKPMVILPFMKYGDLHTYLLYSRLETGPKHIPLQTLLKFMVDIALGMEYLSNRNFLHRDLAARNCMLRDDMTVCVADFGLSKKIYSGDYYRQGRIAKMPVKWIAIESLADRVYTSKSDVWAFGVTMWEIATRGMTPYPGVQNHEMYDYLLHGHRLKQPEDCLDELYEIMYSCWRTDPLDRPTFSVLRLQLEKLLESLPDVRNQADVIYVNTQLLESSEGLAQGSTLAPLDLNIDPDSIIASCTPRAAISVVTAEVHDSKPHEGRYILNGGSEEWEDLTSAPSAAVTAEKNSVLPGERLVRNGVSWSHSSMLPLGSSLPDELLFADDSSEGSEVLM
B4: Speckle-type POZ protein (Homo sapiens), O43791 (parent)
chain: B1 chain
partner: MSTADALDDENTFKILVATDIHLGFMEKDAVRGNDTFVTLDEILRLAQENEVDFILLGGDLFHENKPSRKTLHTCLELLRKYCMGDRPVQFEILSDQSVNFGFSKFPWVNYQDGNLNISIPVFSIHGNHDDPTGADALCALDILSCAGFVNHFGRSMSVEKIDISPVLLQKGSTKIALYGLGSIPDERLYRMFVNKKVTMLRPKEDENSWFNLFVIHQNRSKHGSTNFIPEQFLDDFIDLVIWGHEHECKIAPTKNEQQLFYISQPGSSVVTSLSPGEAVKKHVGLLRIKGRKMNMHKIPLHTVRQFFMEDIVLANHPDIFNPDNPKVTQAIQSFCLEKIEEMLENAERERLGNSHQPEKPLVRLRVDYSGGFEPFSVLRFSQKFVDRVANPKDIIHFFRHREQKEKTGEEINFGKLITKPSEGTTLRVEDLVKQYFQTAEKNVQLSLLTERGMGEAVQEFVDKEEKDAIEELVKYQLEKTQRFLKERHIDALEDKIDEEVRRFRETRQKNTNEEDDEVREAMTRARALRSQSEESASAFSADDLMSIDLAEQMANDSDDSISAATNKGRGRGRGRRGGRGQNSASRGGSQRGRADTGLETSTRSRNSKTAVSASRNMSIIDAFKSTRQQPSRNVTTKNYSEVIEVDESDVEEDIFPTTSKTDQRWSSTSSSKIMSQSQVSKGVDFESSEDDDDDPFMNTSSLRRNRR

Variants of: B1
Conditions: with mdm4_human MDM4, O15151

| Variant | effect of a mutation on the interaction |
| --- | --- |
| F133V | with no effect |

Variants of: B2
Conditions: with men1_human MEN1, O00255

| Variant | effect of a mutation on the interaction |
| --- | --- |
| F102C | with no effect |

Variants of: B2
Conditions: with men1_human MEN1, O00255
Remark: another data set of the same source

| Variant | effect of a mutation on the interaction |
| --- | --- |
| F133L | with no effect |

Variants of: B2
Conditions: with men1_human MEN1, O00255
Remark: another data set of the same source

| Variant | effect of a mutation on the interaction |
| --- | --- |
| Y87C | with no effect |

Variants of: B2
Conditions: with men1_human MEN1, O00255
Remark: another data set of the same source

| Variant | effect of a mutation on the interaction |
| --- | --- |
| F133V | with no effect |

Variants of: B3
Conditions: with mertk_human MERTK

| Variant | effect of a mutation on the interaction |
| --- | --- |
| F102C | with no effect |

Variants of: B3
Conditions: with mertk_human MERTK
Remark: another data set of the same source

| Variant | effect of a mutation on the interaction |
| --- | --- |
| F133L | with no effect |

Variants of: B3
Conditions: with mertk_human MERTK
Remark: another data set of the same source

| Variant | effect of a mutation on the interaction |
| --- | --- |
| Y87C | with no effect |

Variants of: B3
Conditions: with mertk_human MERTK
Remark: another data set of the same source

| Variant | effect of a mutation on the interaction |
| --- | --- |
| F133V | with no effect |

Variants of: B4
Conditions: with mre11_human MRE11, P49959

| Variant | effect of a mutation on the interaction |
| --- | --- |
| F102C | with no effect |

Variants of: B4
Conditions: with mre11_human MRE11, P49959
Remark: another data set of the same source

| Variant | effect of a mutation on the interaction |
| --- | --- |
| F133L | with no effect |
